According to patent US20140050720A1, “ULTRALONG COMPLEMENTARITY DETERMINING REGIONS AND USES THEREOF” (THE SCRIPPS RESEARCH INSTITUTE, priority 2012, published 2014):

Experiments:
Format in all cases: cell-based
GLP-1 receptor (GLP-1R) = target: T1, GLP-1 receptor (GLP-1R) (Homo sapiens, UniProt P43220); experiment: GLP-1R activation, cAMP responsive luciferase reporter in HEK293 cells; conditions: HEK293 cells expressing GLP-1R, 24 h
T1 construct: expressed in transfected cells; host or cells: HEK293 cells expressing surface GLP-1R and a cAMP responsive luciferase reporter
T1 sequence (P43220 24-463, species assumed): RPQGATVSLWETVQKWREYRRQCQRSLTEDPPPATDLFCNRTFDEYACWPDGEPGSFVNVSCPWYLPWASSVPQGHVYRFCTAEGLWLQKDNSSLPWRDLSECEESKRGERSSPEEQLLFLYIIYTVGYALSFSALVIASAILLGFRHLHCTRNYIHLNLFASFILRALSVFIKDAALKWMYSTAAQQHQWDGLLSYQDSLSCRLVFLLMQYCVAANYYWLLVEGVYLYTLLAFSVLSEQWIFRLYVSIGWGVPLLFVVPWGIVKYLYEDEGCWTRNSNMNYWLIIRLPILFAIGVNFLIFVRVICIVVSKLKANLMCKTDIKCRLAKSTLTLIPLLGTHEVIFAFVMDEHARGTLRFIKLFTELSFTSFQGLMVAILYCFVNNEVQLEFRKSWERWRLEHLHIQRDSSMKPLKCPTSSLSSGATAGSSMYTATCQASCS
Method: HEK293 cells expressing surface GLP-1R and cAMP responsive luciferase reporter gene were seeded in 384 well plates at a density of 5000 cells per well. […] Subsequently, luciferase assay was performed using One-Glo luciferase reagent according manufacture's instruction (Promega).
HEK293 cells expressing surface GLP-1R and cAMP responsive luciferase reporter gene were seeded in 384 well plates at a density of 5000 cells per well. After 24 h incubation at 37° C. with 5% CO2, cells were treated with various concentrations of peptides and BLV1H12-GLP-1 clip fusion proteins and incubated for another 24 h. Subsequently, luciferase assay was performed using One-Glo luciferase reagent according manufacture's instruction (Promega).

Human T cells = experiment: Inhibition of T cells activation (secreted TNF-α ELISA); conditions: T cells activated by anti-CD3 and CD28 antibodies, 24 h
Method: Human PBMCs were isolated from fresh venous blood of healthy donors through ficoll gradient centrifugation, followed by resuspension in RPMI1640 medium with 10% FBS and plating in 96-well plates at a density of 1×10^6 cells/mL. Human T cells were purified from the isolated PBMCs using T cell enrichment kit. Purified PBMCs and T cells were pretreated for 1 h at 37° C. with 5% CO2 with various concentrations of purified BLV1H12-Moka1 fusion antibodies and then activated by anti-CD3 and CD28 antibodies. After 24 h treatment, supernatant was collected for measurement of the levels of secreted TNF-α using ELISA kit.
Human T cells were purified from the isolated PBMCs using T cell enrichment kit. Purified T cells were pretreated for 1 h at 37° C. with 5% CO2 with various concentrations of purified BLV1H12-VM24 fusion antibodies and then activated by anti-CD3 and CD28 antibodies. After 24 h treatment, supernatant was collected for measurement of the levels of secreted TNF-a using ELISA kit. FIGS. 18B-C and Table 15 show the BLV1H12-VM24 fusion antibodies inhibitory activities on T cells activation.

TF-1 cells = experiment: Proliferation assay on TF-1 cells (AlamarBlue); conditions: 72 h
Method: TF-1 cells were obtained from American Type Culture Collection (ATCC), VA, and cultured in RPMI-1640 medium supplemented with 10% fetal bovine serum (FBS), penicillin, streptomycin and 2 ng/mL granulocyte-macrophage colony-stimulating factor (GM-CSF). For proliferation assay, TF-1 cells were washed three times with RPMI-1640 medium and resuspended in RPMI-1640 medium with 10% FBS and penicillin and streptomycin at a density of 1.5×10^5 cells/ml. Cells were plated in 96-well plates and treated with varied concentrations of BLV1H12-hEPO fusion antibodies. After 72 h of incubation at 37° C. with 5% CO2, cells viabilities were measured using AlamarBlue (Invitrogen) assay following manufacture's instruction. FIG. 21 and Table 18 show the proliferative activity of Ab-hEPO fusion antibodies on TF1 cells.

Row | Substance | RLU (luciferase reporter) (GLP-1 receptor (GLP-1R); 1.26953 nM) | RLU (luciferase reporter) (GLP-1 receptor (GLP-1R); 2.53906 nM) | RLU (luciferase reporter) (GLP-1 receptor (GLP-1R); 5.07813 nM) | RLU (luciferase reporter) (GLP-1 receptor (GLP-1R); 10.15625 nM) | RLU (luciferase reporter) (GLP-1 receptor (GLP-1R); 20.3125 nM) | RLU (luciferase reporter) (GLP-1 receptor (GLP-1R); 40.625 nM) | RLU (luciferase reporter) (GLP-1 receptor (GLP-1R); 81.25 nM) | RLU (luciferase reporter) (GLP-1 receptor (GLP-1R); 162.5 nM) | RLU (luciferase reporter) (GLP-1 receptor (GLP-1R); 325 nM) | RLU (luciferase reporter) (GLP-1 receptor (GLP-1R); 650 nM) | F.I. (secreted TNF-α, ELISA) (Human T cells; 0.45725 nM) | F.I. (secreted TNF-α, ELISA) (Human T cells; 1.37174 nM) | F.I. (secreted TNF-α, ELISA) (Human T cells; 4.11523 nM) | F.I. (secreted TNF-α, ELISA) (Human T cells; 12.34568 nM) | F.I. (secreted TNF-α, ELISA) (Human T cells; 37.03704 nM) | F.I. (secreted TNF-α, ELISA) (Human T cells; 111.11111 nM) | F.I. (secreted TNF-α, ELISA) (Human T cells; 333.33333 nM) | F.I. (secreted TNF-α, ELISA) (Human T cells; 1000 nM) | other results
1 | Ab-Ex4(RN): BLV1H12-Ex-4 fusion antibody treated with Factor Xa protease to release N-terminal of Ex-4 | 128740 | 153820 | 163020 | 169360 | 161380 | 154920 | 163700 | 163860 | 164160 | 155700 | – | – | – | – | – | – | – | – | RLU (luciferase reporter) (GLP-1 receptor (GLP-1R); 0.00248 nM): 24120; RLU (luciferase reporter) (GLP-1 receptor (GLP-1R); 0.00496 nM): 26320; RLU (luciferase reporter) (GLP-1 receptor (GLP-1R); 0.00992 nM): 28140; RLU (luciferase reporter) (GLP-1 receptor (GLP-1R); 0.01984 nM): 33500; RLU (luciferase reporter) (GLP-1 receptor (GLP-1R); 0.03967 nM): 34180; RLU (luciferase reporter) (GLP-1 receptor (GLP-1R); 0.07935 nM): 48860; RLU (luciferase reporter) (GLP-1 receptor (GLP-1R); 0.31738 nM): 80740; RLU (luciferase reporter) (GLP-1 receptor (GLP-1R); 0.63477 nM): 117240; RLU (luciferase reporter) (GLP-1 receptor (GLP-1R); 1300 nM): 168740
2 | Ab-Ex4: Exendin-4 with Factor Xa cleavage site and GGGGS linkers grafted into BLV1H12 CDR3H; DNA SEQ ID NO: 8 | 6120 | 6360 | 8500 | 10420 | 19340 | 27960 | 54800 | 90660 | 117900 | 134760 | – | – | – | – | – | – | – | – | –
3 | Ab-VM24 L1: Vm24 in BLV1H12 CDR3H, linker=GGGGS; DNA SEQ ID NO: 13 | – | – | – | – | – | – | – | – | – | – | 3427.004 | 3265.969 | 3499.82 | 3627.431 | 3575.4815 | 3085.439 | 1853.645 | 990.818 | –
4 | Ab-VM24-L2: Vm24 in BLV1H12 CDR3H, first linker=GGGSGGGGS and second linker=GGGGSGGGS; DNA SEQ ID NO: 14 | – | – | – | – | – | – | – | – | – | – | 3156.626 | 3345.846 | 3518.316 | 3607.5755 | 3508.0475 | 3220.2475 | 2465.838 | 1306.0215 | –
5 | Ab-hEPO: human EPO with GGGGS linkers grafted into BLV1H12 CDR3H; DNA SEQ ID NO: 10 | – | – | – | – | – | – | – | – | – | – | – | – | – | – | – | – | – | – | F.I. (AlamarBlue, cell viability) (TF-1 cells; 0.00236 nM): 4198.65; F.I. (AlamarBlue, cell viability) (TF-1 cells; 0.01178 nM): 4757.196; F.I. (AlamarBlue, cell viability) (TF-1 cells; 0.05888 nM): 5265.069; F.I. (AlamarBlue, cell viability) (TF-1 cells; 0.2944 nM): 6430.723; F.I. (AlamarBlue, cell viability) (TF-1 cells; 1.472 nM): 8963.889; F.I. (AlamarBlue, cell viability) (TF-1 cells; 7.36 nM): 10330.18; F.I. (AlamarBlue, cell viability) (TF-1 cells; 36.8 nM): 10776.73; F.I. (AlamarBlue, cell viability) (TF-1 cells; 184 nM): 10330.44; F.I. (AlamarBlue, cell viability) (TF-1 cells; 4.71E−04 nM): 4324.037; F.I. (AlamarBlue, cell viability) (TF-1 cells; 9.42E−05 nM): 4361.92
